Patent US20160030629A1, “PEPTIDE-ALBUMIN HYDROGEL PROPERTIES AND ITS APPLICATIONS” (KANSAS STATE UNIVERSITY RESEARCH FOUNDATION, priority 2012, published 2016)

What was measured:
Type in all cases: physicochemical
[1] = Rheology (storage modulus, hydrogel forming rate) of h9e/BSA mixtures; conditions: 3 mM h9e solution without BSA, 30 min test
Experimental: BSA and HSA were dissolved in water with 5 wt % concentration. The peptide solution and albumin solution were then mixed at different ratios for final mixtures of 1, 2, 3 mM h9e peptide with albumin from 0.1 to 5 wt %.
The storage (G′) and loss (G″) moduli of h9e hydrogels with different peptide/albumin ratios were measured on a rheometer system C-VOR 150 (Malvern instruments, Malvern, Worcestershire WR141XZ, United Kingdom) with a 20 mm diameter parallel plate test system. All rheological tests were carried out at 37° C. […]

[2] = Comparison of material properties of different 3D cell culture hydrogels
Description: In addition, for in vitro 3D cell culture, cell encapsulation and isolation are two critical steps to introduce 3D spatial support for cell growth and to recover embedded cells from the scaffold matrix for downstream studies respectively. For a convenient, effective, and safe encapsulation, cells should be added simultaneously with the initialization of hydrogelation. Therefore, mild and cyto-compatible hydrogel-forming conditions are preferred, to ensure that cells survive comfortably during gel formation. However, the sol-gel transformation of currently used peptide/protein hydrogels (i.e., puramatrix gel, hydromatix peptide hydrogel, and matrigel) is triggered by adjusting pH or temperature (Table 1).

[3] = Stability of h9e-2i hydrogel and of h9e peptide solution
Experimental: The stability of h9e-2i medium hydrogel was tested. A plastic tray was placed on the bottom of the well plate. Next, 1 wt % h9e solution was mixed with 2i medium at 1:1 (v:v) ratio in a centrifuge tube and then transferred into the well plate. There was 500 μl peptide hydrogel for each well. The well plate was then placed in an incubator for 1 hour. After hydrogel was stable, another 500 μl of 2i medium was slowly added on the top of hydrogel. The top medium was replaced every other day. For mechanical testing, the top 2i medium was removed and hydrogel was transferred to a dynamic rheometer using the tray. The stability of the peptide solution was also tested using 1 wt % peptide solution stored in 4° C. refrigerator for up to 24 days. Part of the peptide solution was taken out and mixed with 2i medium with 1:1 (v:v) ratio on days 1, 6, 18 and 24.

[4] = pH of synthesized peptide in water solution
Description: Peptides were synthesized on a CEM Liberty microwave peptide synthesizer (CEM Corporation, Matthews, N.C.) based on the automated base-labile 9-fluorenylmethoxycarbonyl (Fmoc) strategy with Fmoc-protected amino acids (EMD Biosciences, San Diego, Calif.). Peptides were cleaved with 95% trifluoroacetic acid (Sigma-Aldrich, Milwaukee, Wis.), 2.5% triisopropylsilane (Sigma), and 2.5% deionized water. The crude peptides were washed three times with anhydrous ether (Fisher Biotech, Fair Lawn, N.J.). After that, peptides were dissolved in acetonitrile and distilled (DI) water (50/50 v/v). The peptide solution was frozen in a −80° C. refrigerator overnight and then was freeze-dried for 48 hours by using the Labconco freeze dry system (Labconco, Kansas City, Mo.). The pH value of the peptide in water solution was 3.6. Molecular weight of the synthesized peptide was confirmed by matrix-assisted laser desorption/ionization time-of-flight mass spectroscopy on an Ultraflex II instrument (Bruker Daltronics, Billerica, Mass.). The peptide purity was confirmed by a Beckman System Gold high performance liquid chromatography (HPLC, Beckman Coulter, Inc., Fullerton, Calif.) on a phenomenex synergi 4μ Hydro-RP column (Phenomenex, Inc., Torance, Calif.) with the following gradient: 10-90% B in 20 min (A: 99.9% H2O, 0.1% TFA; B: 90% acetonitrile, 9.9% H2O, 0.1% TFA).

[5] = h9e hydrogel formation in cell culture media, serum/albumin dependence
Description: This phenomenon was further exploited in other cell culture medium like Dulbecco's modified Eagle's medium (DMEM), Roswell Park Memorial Institute medium (RPMI), and Leibovitz medium (L-15). […] After screening the abundant serum compounds, we concentrated on one of the most abundant proteins in serum, albumin, which contains charged groups and several surface binding domains.

## FLIVIGSIIGPGGDGPGGD (Derivative of spider flagelliform silk protein and a trans-membrane segment of subunit IV in the dihydropyridine sensitive human muscle L-type calcium channel) [h9e, 19 unit amphiphilic self-assembling peptide]
[1]
  rheological behaviour: performed as Newtonian liquid
[2]
  Porosity: 50-200 nm
  Solution pH: Neutral
[3]; 1 wt % h9e solution stored at 4° C. for 24 days
  hydrogel formation with 2i medium after storage of solution: could still from a hydrogel
[3]; recent study, no details
  stability of h9e solution: exceed 2 months
[4]
  pH value of the peptide in water solution: 3.6
[5]; MEM without serum
  solution to hydrogel transition: did not stimulate this solution to hydrogel transitions effectively
[5]; h9e peptide solution added into MEM with 10% serum
  time to transform into a self-supporting hydrogel matrix: ≤ 1 min
[5]; serum-free N2B27 supplemented 2i medium with 1 wt % albumin
  hydrogel formation: hydrogel formation
